Measured values taken from article PMC10447241 (Nature, 2023).
Blank lines part the entries; values can stand above or below the molecule they belong to.

Key:
Test in all cases: FRET or BRET; GCGR–Rluc8 (or mutants) and βarr1–GFP2 (or mutants) co-transfected 1:1 in HEK293F cells; glucagon 1 pM to 10 μM; HBSS, 20 mM HEPES pH 7.4; coelenterazine 400a; EC50 is that of glucagon in inducing the BRET signal
[1] = target: the GCGR mutations R413A and R414A (as a group, for the printed range of the EC50 shift)
[2] = target: wild-type GCGR with Rluc8 at the C terminus (human) (UniProt P47871)
wild-type GCGR with Rluc8 at the C terminus (human), sequence (P47871 26-477): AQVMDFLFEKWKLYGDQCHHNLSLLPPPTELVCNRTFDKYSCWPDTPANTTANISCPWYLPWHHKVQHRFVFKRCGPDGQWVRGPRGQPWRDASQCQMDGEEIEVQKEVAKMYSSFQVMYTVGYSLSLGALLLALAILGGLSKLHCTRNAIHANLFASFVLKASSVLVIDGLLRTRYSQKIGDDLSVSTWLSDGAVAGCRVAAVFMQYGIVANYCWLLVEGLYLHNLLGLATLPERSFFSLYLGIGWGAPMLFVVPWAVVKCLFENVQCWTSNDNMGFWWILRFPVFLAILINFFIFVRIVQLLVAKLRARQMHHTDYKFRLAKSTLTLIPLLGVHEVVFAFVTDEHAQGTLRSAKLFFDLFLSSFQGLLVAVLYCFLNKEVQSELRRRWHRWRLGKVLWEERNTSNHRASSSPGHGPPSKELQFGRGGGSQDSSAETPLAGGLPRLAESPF

[3] = target: T1, wild-type GCGR with Rluc8 at the C terminus (human, UniProt P47871 26-477); conditions: partners not purified
T1 construct: glucagon receptor (GCGR), human, wild type; also called WT; source: HEK293F, transfected, in living cells; not shown: FLAG, N-terminal, kept; Rluc8, C-terminal, kept
T1 sequence (P47871 26-477): as above

fold shift of the glucagon EC50 in the GCGR–βarr1 BRET, mutant against wild type [1]: 112 to 205 fold
Molecule: human βarr1 with GFP2 at the C terminus (from UniProt P49407 1-418) (natural protein)

fold shift of the glucagon EC50 in the GCGR–βarr1 BRET, mutant against wild type [2]: 24 fold
Molecule: ΔFL, the βarr1 mutant with the turn region of the finger loop removed, with GFP2 at the C terminus (from UniProt P49407 1-418) (natural protein)

fold drop of glucagon potency in the GCGR–βarr1 BRET, mutant against wild type [3]: 15 fold
B1: βarr1 3Q (K232Q, R236Q and K250Q) with GFP2 at the C terminus (natural protein, human, UniProt P49407 1-418, looked up)
chain: MGDKGTRVFKKASPNGKLTVYLGKRDFVDHIDLVDPVDGVVLVDPEYLKERRVYVTLTCAFRYGREDLDVLGLTFRKDLFVANVQSFPPAPEDKKPLTRLQERLIKKLGEHAYPFTFEIPPNLPCSVTLQPGPEDTGKACGVDYEVKAFCAENLEEKIHKRNSVRLVIRKVQYAPERPGPQPTAETTRQFLMSDKPLHLEASLDKEIYYHGEPISVNVHVTNNTNKTVKKIQISVQQYADICLFNTAQYQCPVAMEEADDTVAPSSTFCKVYTLTPFLANNREKRGLALDGKLKHEDTNLASSTLLREGANREILGIIVSYKVKVKLVVSRGGLLGDLASSDVAVELPFTLMHPKPKEEPPHREVPENETPVDTNLIELDTNDDDIVFEDFARQRLKGMKDDKEEEEDGTGSPQLNNR
notes: β-arrestin 1 (βarr1), human, triple mutant of the wild type; source: HEK293F, transfected, in living cells; not shown: GFP2, C-terminal, kept
